According to patent US20230287046A1, “MOLECULES TARGETING PROTEINS” (AELIN THERAPEUTICS, priority 2020, published 2023):
Changes are numbered by the printed parent chain.

Tests used:
ITK R29C = target: T1, ITK R29C (Homo sapiens, UniProt Q08881, R29C); experiment: ITK in vitro translation assay with streptavidin pull-down, R29C; details: 10 μM biotinylated pept-in, fraction binding normalized over vehicle
T1 construct: made in house; host or cells: cell-free: PURExpress In Vitro Protein Synthesis Kit (New England Biolabs)
T1 sequence (Q08881 1-620 R29C): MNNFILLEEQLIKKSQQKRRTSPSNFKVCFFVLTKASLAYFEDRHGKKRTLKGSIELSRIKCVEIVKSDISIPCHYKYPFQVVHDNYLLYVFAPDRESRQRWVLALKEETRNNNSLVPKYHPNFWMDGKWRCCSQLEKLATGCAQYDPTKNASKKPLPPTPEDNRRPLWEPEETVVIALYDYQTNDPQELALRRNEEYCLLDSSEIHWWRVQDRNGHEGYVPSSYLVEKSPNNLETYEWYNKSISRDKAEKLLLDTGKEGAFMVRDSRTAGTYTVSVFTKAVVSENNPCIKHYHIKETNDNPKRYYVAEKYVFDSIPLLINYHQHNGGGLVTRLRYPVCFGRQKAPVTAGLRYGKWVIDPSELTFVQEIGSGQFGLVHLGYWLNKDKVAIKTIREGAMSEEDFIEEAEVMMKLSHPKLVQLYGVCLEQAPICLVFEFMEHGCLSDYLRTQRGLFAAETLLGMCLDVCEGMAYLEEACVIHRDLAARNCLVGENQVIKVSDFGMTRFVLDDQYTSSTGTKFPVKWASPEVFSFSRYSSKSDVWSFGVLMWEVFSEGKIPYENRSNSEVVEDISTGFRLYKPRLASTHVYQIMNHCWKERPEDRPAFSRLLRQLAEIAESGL
Description: (§1) An in vitro translation approach was used to assess ITK mutant selective binding over wild-type for the 22-006-N001 and 22-018-N001 pept-ins. In particular, in vitro translation assays were performed using the PURExpress® In Vitro Protein Synthesis Kit (New England Biolabs) according to the manufacturer's instructions. Briefly, linear DNA fragments containing T7 promotor and terminator sequences flanking the […] (SEQ ID NO: 68)-tagged ITK coding sequence were generated using PCR and purified using the MinElute PCR Purification Kit (Qiagen). 250 ng of linear DNA was subsequently used for the in vitro translation reaction, which was performed for 2 hrs at 37° C. with shaking (1000 rpm). Indicated biotinylated pept-ins were mixed in the translation reactions from a 5 mM stock solution in 6M Urea to a final concentration of 10 μM. Upon completion of the translation reaction, biotinylated pept-ins were captured from the reaction mix using Streptavidin coated beads (Pierce) during 90 min at room temperature. Beads were next washed with TBS containing 0.1% Tween 20 and bound proteins were finally boiled off in 1×SDS loading dye (Bio-Rad) in TBS buffer. Proteins were resolved using Any kD 15-well Mini-PROTEAN gels (Bio-Rad) during SDS-PAGE and probed for ITK using a rabbit anti-[…] (SEQ ID NO: 68) tag antibody (Cell Signaling 14793) after Western blotting.

ITK R29L = target: T2, ITK R29L (Homo sapiens, UniProt Q08881, R29L); experiment: ITK in vitro translation assay with streptavidin pull-down, R29L; details: 10 μM biotinylated pept-in, fraction binding normalized over vehicle
T2 construct: made in house; host or cells: cell-free: PURExpress In Vitro Protein Synthesis Kit (New England Biolabs)
T2 sequence (Q08881 1-620 R29L): T1 sequence (Q08881 1-620 R29C) with C29L
Description: as §1

Sequence	binding to ITK R29C over wild-type (ITK R29C)	binding to ITK R29L over wild-type (ITK R29L)
AKVCFFVKGSKVCFFVK (ITK pept-in) [22-006-N001]	Selective binding to the mutant over wild-type	–
AKVLFFVKGSKVLFFVK (ITK pept-in) [22-018-N001]	–	Selective binding to the mutant over wild-type
